This is an account of results in paper PMC10286459, “The development of an anti-cancer peptide M1-21 targeting transcription factor FOXM1” (Cell & Bioscience, 2023).

Non-standard residues stand in square brackets, D forms with d. No end group written: not given here.

One assay has as its target T1, GFP-FOXM1(688-748) (human).
T1 construct: also called GFP-M1(688–748); FOXM1 C-terminus
T1 sequence (Q08050 688-748, looked up): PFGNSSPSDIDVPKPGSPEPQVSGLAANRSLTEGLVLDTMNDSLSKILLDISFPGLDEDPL
The experiment in a line: MST.

For another assay, the target named is T2, GFP-FOXM1(1-138) (human, UniProt Q08050 1-138).
T2 construct: also called GFP-M1(1-138); FOXM1 N-terminal domain
T2 sequence (looked up): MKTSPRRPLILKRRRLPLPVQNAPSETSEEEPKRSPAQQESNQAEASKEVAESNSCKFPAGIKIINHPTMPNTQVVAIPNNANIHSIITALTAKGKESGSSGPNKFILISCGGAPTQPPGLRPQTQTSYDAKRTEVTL
The experiment in a line: MST.

For the next assay, the target named is T3, GFP-FOXM1(232-332) (human, UniProt Q08050-3 232-332).
T3 construct: also called GFP-M1(232–332); FOXM1 DBD
T3 sequence (looked up): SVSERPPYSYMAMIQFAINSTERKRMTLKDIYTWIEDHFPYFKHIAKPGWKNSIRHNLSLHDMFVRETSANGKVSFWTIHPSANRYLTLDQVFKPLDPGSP
The experiment in a line: MST.

For the next assay, the target named is T4, GFP-FOXM1 (human, UniProt Q08050-3 1-801).
T4 sequence (looked up): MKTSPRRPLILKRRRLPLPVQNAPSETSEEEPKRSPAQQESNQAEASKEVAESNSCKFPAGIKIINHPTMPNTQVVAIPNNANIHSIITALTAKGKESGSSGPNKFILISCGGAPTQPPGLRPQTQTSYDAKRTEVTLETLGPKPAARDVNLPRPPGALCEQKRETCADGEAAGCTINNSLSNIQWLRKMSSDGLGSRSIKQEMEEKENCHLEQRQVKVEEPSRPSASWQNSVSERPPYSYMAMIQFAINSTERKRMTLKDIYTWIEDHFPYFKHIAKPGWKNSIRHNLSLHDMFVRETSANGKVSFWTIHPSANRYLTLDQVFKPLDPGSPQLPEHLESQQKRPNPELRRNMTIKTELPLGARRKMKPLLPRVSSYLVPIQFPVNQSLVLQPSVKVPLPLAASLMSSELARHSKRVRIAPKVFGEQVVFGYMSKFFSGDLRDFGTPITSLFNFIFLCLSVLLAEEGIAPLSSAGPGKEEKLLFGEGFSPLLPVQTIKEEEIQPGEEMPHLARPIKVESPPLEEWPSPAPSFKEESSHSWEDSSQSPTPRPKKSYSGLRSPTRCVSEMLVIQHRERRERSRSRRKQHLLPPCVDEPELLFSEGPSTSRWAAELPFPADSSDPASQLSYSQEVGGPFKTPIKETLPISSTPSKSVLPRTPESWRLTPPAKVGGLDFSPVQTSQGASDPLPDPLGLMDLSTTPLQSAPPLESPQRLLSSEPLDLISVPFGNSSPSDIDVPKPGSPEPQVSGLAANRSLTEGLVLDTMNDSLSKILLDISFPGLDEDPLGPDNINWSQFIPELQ
The experiment in a line: MST.

For a further assay, the target named is T5, endogenous FOXM1 protein (human (endogenous in 293T and …, UniProt Q08050 1-763)).
T5 sequence (looked up): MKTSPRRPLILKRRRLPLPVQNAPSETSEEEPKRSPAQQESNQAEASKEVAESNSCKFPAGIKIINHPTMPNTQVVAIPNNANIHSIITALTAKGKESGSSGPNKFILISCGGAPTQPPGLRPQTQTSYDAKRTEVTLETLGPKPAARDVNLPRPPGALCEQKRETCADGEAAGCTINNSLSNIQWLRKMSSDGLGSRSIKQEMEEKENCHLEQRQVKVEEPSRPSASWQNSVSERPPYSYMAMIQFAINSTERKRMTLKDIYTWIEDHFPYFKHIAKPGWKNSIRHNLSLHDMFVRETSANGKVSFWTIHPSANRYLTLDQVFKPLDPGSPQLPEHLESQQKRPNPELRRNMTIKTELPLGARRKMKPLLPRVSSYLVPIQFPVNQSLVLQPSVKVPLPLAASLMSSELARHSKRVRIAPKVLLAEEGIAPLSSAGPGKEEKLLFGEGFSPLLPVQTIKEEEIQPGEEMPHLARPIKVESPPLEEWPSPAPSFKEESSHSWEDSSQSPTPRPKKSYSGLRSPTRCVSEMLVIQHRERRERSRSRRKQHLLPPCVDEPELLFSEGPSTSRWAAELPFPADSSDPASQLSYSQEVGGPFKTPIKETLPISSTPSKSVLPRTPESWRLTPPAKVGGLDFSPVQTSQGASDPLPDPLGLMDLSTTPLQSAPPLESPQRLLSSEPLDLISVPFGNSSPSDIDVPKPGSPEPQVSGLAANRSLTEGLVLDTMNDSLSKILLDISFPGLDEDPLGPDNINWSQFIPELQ
Briefly: cell-based or functional assay.

B1: M1-21 (peptide)
chain: [dQ][dT][dQ][dP][dR][dL]G[dP][dP][dQ][dT][dP][dA]GG[dC][dS][dI][dL][dI][dF]
modifications: not fully specified; also: retro-inverso, chain direction relative to parent not given here
For orientation: Kd means the equilibrium constant for the complex coming apart. A low value points to a tighter complex. On to B1, for which the Kd with GFP-FOXM1(688-748) was 1.79 µM; in the assay with GFP-FOXM1(1-138), 6.27 µM; in the assay with GFP-FOXM1(232-332), 5.71 µM; in the assay with GFP-FOXM1, 12.5 µM. The “IC50 of cell viability, MDA-MB-231 cells, 48 h (trypan blue)” value with endogenous FOXM1 protein was found to be 33.8 µM.
